According to FireProtDB (doi:10.1021/acs.biochem.7b00571):

B1: Salicylic acid-binding protein 2, Q6RYA0 (parent)
chain: MKEGKHFVLVHGACHGGWSWYKLKPLLEAAGHKVTALDLAASGTDLRKIEELRTLYDYTLPLMELMESLSADEKVILVGHSLGGMNLGLAMEKYPQKIYAAVFLAAFMPDSVHNSSFVLEQYNERTPAENWLDTQFLPYGSPEEPLTSMFFGPKFLAHKLYQLCSPEDLALASSLVRPSSLFMEDLSKAKYFTDERFGSVKRVYIVCTEDKGIPEEFQRWQIDNIGVTEAIEIKGADHMAMLCEPQKLCASLLEIAHKYN

Variants of: B1
Conditions: Nicotiana tabacum; pH 7.2; 4 °C; Urea; Fluorescence; BES; reversible: yes; structure 1Y7I; whole UniProt chain shown

Variant	denaturant midpoint (higher = more stable) [M]
A189S	2.5
F197Y	2.2
G212C	3.5
E215P	3.2
Q221M	2.7
I225T	1.5
G226P	1.6
V227P	1.8
T228S	1.9
A230V	2.6
I231R	1.9
C243S	2.1
E244K	3
K247E	1.1
C249A	2.1
A250K	2
S251V	2.2
